Drawing on paper PMC6939381, this text covers Kd for one substance.

The test deals with CohE-CBM(C63S)-ybbR (Ruminococcus flavefaciens). Briefly: ITC.

Regarding “ybbR-CBM(C63S)-ScaB-XDoc (domain or fragment)”, the Kd was found to be 149 nM.
